Patent US20110217334A1

Target: serum IgE of birch pollen allergic individuals
Assay: ELISA inhibition, Bet v 1a immobilized, BM4 as inhibitor in serial dilutions

- fold reduced patients' IgE binding capacity compared to Bet v 1a: 100 to 1000 fold
B1: BM4 (protein)
chain: GVFNYETETTSVIPAARLFKAFILDGDNLFPKVAPQAISSVENIEGNGGPGTIKKISFPEGFPFKYVKDRVDEVDHTNFKYNYSVIEGGPIGDTLEKISNEIKIVATPSGSTIKSISNKYHTKGDHEVKAEQVKASKEMGETLLRAVESYLLAHSDAYN
